# Measurements from article PMC4481223.
# Where “and” joins values, the source holds several entries; their conditions need not be identical. Equal values may be shown once.
# Key:
# [1] = biological target: fused Cp (genetically-fused dimer of the hepatitis B virus core protein assembly domain) (hepatitis B virus); assay: SEC; pooled peaks 2-4 of the fused Cp disassembly re-run on a 26/60 Superdex-200 column calibrated with molecular weight standards, 1.0 ml/min; masses from the standard curve
# [2] = biological target: fused Cp (genetically-fused dimer of the hepatitis B virus core protein assembly domain) (hepatitis B virus); assay: native MS; non-covalent ESI-MS of oligomer samples isolated by SEC, button-dialysed into 100 mM ammonium acetate pH 6.8 (fused Cp samples at pH 9.5)
substance,measurement,setting,value
fused Cp (genetically-fused dimer of the hepatitis B virus core protein assembly domain),stoichiometry N,[1],2 copies and 3 copies and 5 copies
same,stoichiometry N,[2],2 and 3
